Tests used:
DC-SIGN (human) [1] = molecular target: DC-SIGN (human) (UniProt Q9NNX6); assay: cell-based or functional assay
DC-SIGN (human) [2] = molecular target: DC-SIGN (human) (UniProt Q9NNX6); assay: flow cytometry, mature DC day 9, MCM/PGE2-matured (endogenous DC-SIGN)
DC-SIGN (human) [3] = molecular target: DC-SIGN (human) (UniProt Q9NNX6); assay: flow cytometry, immature DC day 7 (endogenous DC-SIGN)
DC-SIGN (human) [4] = molecular target: DC-SIGN (human) (UniProt Q9NNX6); assay: flow cytometry, mature DC day 9, TNFα-matured (endogenous DC-SIGN)
DC-SIGN (human) [5] = molecular target: DC-SIGN (human) (UniProt Q9NNX6); assay: flow cytometry, mature DC day 9, LPS-matured (endogenous DC-SIGN)

Chain of DC-SIGN (human) (Q9NNX6 whole entry): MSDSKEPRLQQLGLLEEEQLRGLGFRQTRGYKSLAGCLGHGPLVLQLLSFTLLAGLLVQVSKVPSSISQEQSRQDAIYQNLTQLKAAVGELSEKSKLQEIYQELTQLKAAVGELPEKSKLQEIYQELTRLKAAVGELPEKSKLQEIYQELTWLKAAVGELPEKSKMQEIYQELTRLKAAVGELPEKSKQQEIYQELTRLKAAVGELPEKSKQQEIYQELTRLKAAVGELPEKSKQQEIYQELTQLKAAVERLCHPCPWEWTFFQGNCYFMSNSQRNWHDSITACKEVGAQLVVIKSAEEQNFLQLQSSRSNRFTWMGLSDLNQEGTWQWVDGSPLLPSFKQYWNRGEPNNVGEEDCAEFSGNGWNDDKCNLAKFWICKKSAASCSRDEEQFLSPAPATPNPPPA

Row | mean fluorescence of staining (mean fluorescence) (DC-SIGN (human) [2]) | mean fluorescence of staining (mean fluorescence) (DC-SIGN (human) [3]) | mean fluorescence of staining (mean fluorescence) (DC-SIGN (human) [4]) | mean fluorescence of staining (mean fluorescence) (DC-SIGN (human) [5]) | Substance | luciferase activity (unactivated T cells, THP-SIGN cells relative to THP cells) (DC-SIGN (human) [1])
1 | – | – | – | – | HxB2 envelope (from UniProt P04578 33-856) | 20 fold
2 | 445 | 980 | 420 | 489 | AZN-D1 (antibody) | –
